# Laboratory results: patent US20250277045A1 (KEYMED BIOSCIENCES, published 2025)
# Numbering of substitutions follows the chain as printed.
# T1: human BCMA on cells (CHO-hBCMA clone 2C2; NCI-H929; RPMI-8226) (human, UniProt Q02223 1-184)
# T1 sequence (looked up): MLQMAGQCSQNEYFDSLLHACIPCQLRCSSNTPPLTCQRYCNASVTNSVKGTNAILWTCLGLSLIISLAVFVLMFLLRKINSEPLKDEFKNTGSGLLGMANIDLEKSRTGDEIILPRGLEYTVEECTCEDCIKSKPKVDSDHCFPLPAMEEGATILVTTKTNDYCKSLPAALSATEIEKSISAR
# B1: h40C6-CD3 (bispecific antibody, V domains shown)
# VH 1: QVQLVQSGSELKKPGASVKVSCKASGYIFTNFGMNWVREAPGQGLEWMGWINTYTGEQIYADDFKGRFAFSLDTSASTAYLQISSLKAEDTAVYFCARGEIYYGYDVGFVYWGQGTLVTVSS
# VL 1: DIVLTQSPASLAVSPGQRATITCRASRSVTTSGYSYIHWYQKKPGQPPKLLIYLASDLEAGVPARFSGSGSGTDFTLTINPVEANDTANYYCQHSRELPWTFGQGTKVEIK
# VH 2: EVQLVESGGGLVQPGGSLRLSCAASGFTFNTYAMNWVRKAPGKGLEWVGRIRSKYNNYATYYADSVKDRFTISRDDSKNSLYLQMNSLKTEDTAVYYCVRHGNFGNSYVSWFAYWGQGTLVTVSS
# VL 2: QAVVTQEPSLTVSPGGTVTLTCRSSTGAVTTSNYANWVQEKPGQAPRGLIGGTNKRAPWTPARFSGSLLGGKAALTITGAQAEDEAEYYCVLWYSNLWVFGGGTKLTVL
# B2: h34G2-CD3 (bispecific antibody, V domains shown)
# VH 1: B1 VH 1 with I28T, F32Y, Q58R
# VL 1: B1 VL 1 with R27K, T30S, I37M, D57N, A60S
# VH 2: B1 VH 2
# VL 2: B1 VL 2
# B3: h29A11-CD3 (bispecific antibody, V domains shown)
# VH 1: B1 VH 1
# VL 1: B1 VL 1 with R27K, T30S, I37M, D57N, A60S
# VH 2: B1 VH 2
# VL 2: B1 VL 2
# B4: h38D9-CD3 (bispecific antibody, V domains shown)
# VH 1: B1 VH 1
# VL 1: B1 VL 1 with R27K, T30S, I37M, A55G, A60S
# VH 2: B1 VH 2
# VL 2: B1 VL 2
# B5: h15H10-CD3 (bispecific antibody, V domains shown)
# VH 1: B1 VH 1 with I28T, E57D, Q58L, A61G, V110A
# VL 1: B1 VL 1 with R27K, T30S, I37M, D57N, A60S
# VH 2: B1 VH 2
# VL 2: B1 VL 2
# Biological target: T1, human BCMA on cells (CHO-hBCMA clone …)
# Test: cell-based or functional assay
# Wherever Upregulation of CD25 (%), CD4+T is given: test concentration or dose not given here.
# Wherever Upregulation of CD25 (%), CD8+T is given: test concentration or dose not given here.
# Wherever Upregulation of CD69 (%), CD4+T is given: test concentration or dose not given here.
# Wherever Upregulation of CD69 (%), CD8+T is given: test concentration or dose not given here.
row,Binder,"Killing EC50 (TDCC, LDH release; PBMC + RPMI-8226) [nM]"
1,B1,1.12
2,B2,1.02
3,B3,0.69
4,B4,1.04
5,B5,1.83

# Biological target: human CD3 on T cells (Jurkat cells; human peripheral blood CD4+ and CD8+ T cells) (human, UniProt P07766 23-207)
# Sequence (P07766 23-207): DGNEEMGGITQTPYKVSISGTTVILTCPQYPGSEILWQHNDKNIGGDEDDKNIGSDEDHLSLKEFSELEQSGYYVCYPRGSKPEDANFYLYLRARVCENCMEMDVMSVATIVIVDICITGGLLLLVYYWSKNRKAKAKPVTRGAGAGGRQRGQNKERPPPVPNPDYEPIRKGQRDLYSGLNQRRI
# Test: cell-based or functional assay
Binder,"Upregulation of CD25 (%), CD4+T [%]","Upregulation of CD25 (%), CD8+T [%]","Upregulation of CD25 EC50, CD4+T [nM]","Upregulation of CD25 EC50, CD8+T [nM]","Upregulation of CD69 (%), CD4+T [%]","Upregulation of CD69 (%), CD8+T [%]","Upregulation of CD69 EC50, CD4+T [nM]","Upregulation of CD69 EC50, CD8+T [nM]"
B1,25,28,0.45,0.49,37,44,0.63,0.21
B2,27,33,1.18,1.28,42,55,0.68,0.57
B3,33,36,0.45,3.85,47,58,0.37,3.39
B4,29,35,0.77,1.75,57,52,0.52,0.37
B5,36,41,3.85,2.64,58,62,3.39,0.94
